According to publication PMC10397247:

Key:
[1] = target: T1, 4H918-AA; test: two-hybrid library CCmax; conditions: mean of both orientations;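 also: natural log of median RNA to DNA barcode read ratio; higher means stronger binding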
T1 chain: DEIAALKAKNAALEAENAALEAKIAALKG

[2] = target: T2, 4H568-AA; test: two-hybrid library CCmax; conditions: mean of both orientations;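 also: natural log of median RNA to DNA barcode read ratio; higher means stronger binding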
T2 chain: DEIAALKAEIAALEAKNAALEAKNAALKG

[3] = target: T3, 4H717-AA; test: two-hybrid library CCmax; conditions: mean of both orientations;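 also: natural log of median RNA to DNA barcode read ratio; higher means stronger binding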
T3 chain: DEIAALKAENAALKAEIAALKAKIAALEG

[4] = target: T4, 4H687-AA; test: two-hybrid library CCmax; conditions: mean of both orientations;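 also: natural log of median RNA to DNA barcode read ratio; higher means stronger binding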
T4 chain: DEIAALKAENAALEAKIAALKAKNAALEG

[5] = target: T5, 4H883-AA; test: two-hybrid library CCmax; conditions: mean of both orientations;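 also: natural log of median RNA to DNA barcode read ratio; higher means stronger binding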
T5 chain: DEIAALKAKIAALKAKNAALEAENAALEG

[6] = target: T6, 4H797-AA; test: two-hybrid library CCmax; conditions: mean of both orientations;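 also: natural log of median RNA to DNA barcode read ratio; higher means stronger binding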
T6 chain: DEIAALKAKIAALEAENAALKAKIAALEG

[7] = target: T7, 4H967-AA; test: two-hybrid library CCmax; conditions: mean of both orientations
T7 chain: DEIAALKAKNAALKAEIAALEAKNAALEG

[8] = target: T8, 4H953-AA; test: two-hybrid library CCmax; conditions: mean of both orientations
T8 chain: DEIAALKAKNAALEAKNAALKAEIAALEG

[9] = target: T9, 4H4001-AA; test: two-hybrid library CCmax
T9 chain: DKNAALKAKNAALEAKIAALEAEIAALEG

[10] = target: T10, 4H3427-bH; test: two-hybrid library CCNG1
T10 chain: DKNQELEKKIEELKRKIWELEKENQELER

[11] = target: T11, 4H457-bH; test: two-hybrid library CCNG1
T11 chain: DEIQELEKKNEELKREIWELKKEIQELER

[12] = target: T12, 4H968-bH; test: two-hybrid library CCNG1
T12 chain: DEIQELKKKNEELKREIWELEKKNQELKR

[13] = target: T13, 4H797-bH; test: two-hybrid library CCNG1
T13 chain: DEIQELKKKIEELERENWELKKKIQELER

[14] = target: T14, 4H855-bH; test: two-hybrid library CCNG1
T14 chain: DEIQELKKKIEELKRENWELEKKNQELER

[15] = target: T15, 4H780-bH; test: two-hybrid library CCNG1
T15 chain: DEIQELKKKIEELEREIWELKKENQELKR

[16] = target: T16, 4H3010-bH; test: two-hybrid library CCNG1
T16 chain: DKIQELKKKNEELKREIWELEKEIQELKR

[17] = target: T17, 4H2702-bH; test: two-hybrid library CCNG1
T17 chain: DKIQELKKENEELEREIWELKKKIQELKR

[18] = target: T18, 4H754-bH; test: two-hybrid library CCNG1
T18 chain: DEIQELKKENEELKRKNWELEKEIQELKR

[19] = target: T19, 4H346-bH; test: two-hybrid library CCNG1
T19 chain: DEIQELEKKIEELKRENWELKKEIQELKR

[20] = target: T20, 4H3112-bH; test: two-hybrid library CCNG1
T20 chain: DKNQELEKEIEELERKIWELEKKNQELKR

[21] = target: T21, 4H575-bH; test: two-hybrid library CCNG1
T21 chain: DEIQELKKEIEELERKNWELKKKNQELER

[22] = target: T22, 4H918-bH; test: two-hybrid library CCNG1
T22 chain: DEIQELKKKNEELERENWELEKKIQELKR

[23] = target: T23, 4H3926-bH; test: two-hybrid library CCNG1
T23 chain: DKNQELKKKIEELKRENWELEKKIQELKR

[24] = target: T24, 4H683-bH; test: two-hybrid library CCNG1
T24 chain: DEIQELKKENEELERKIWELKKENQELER

[25] = target: T25, 4H953-bH; test: two-hybrid library CCNG1
T25 chain: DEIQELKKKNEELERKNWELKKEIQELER

[26] = target: T26, 4H4073-bH; test: two-hybrid library CCNG1
T26 chain: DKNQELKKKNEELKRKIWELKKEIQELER

[27] = target: T27, P7bHq; test: two-hybrid library CCNG1
T27 chain: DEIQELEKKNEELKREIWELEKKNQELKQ

[28] = target: T28, P9bHq; test: two-hybrid library CCNG1
T28 chain: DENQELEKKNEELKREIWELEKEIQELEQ

[29] = target: T29, P8bHq; test: two-hybrid library CCNG1
T29 chain: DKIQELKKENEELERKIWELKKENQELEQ

[30] = target: T30, P6bHq; test: two-hybrid library CCNG1
T30 chain: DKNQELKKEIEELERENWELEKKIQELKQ

[31] = target: T31, 4H584-bA; test: two-hybrid library CCNG1
T31 chain: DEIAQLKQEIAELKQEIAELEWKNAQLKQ

[32] = target: T32, 4H3172-bA; test: two-hybrid library CCNG1
T32 chain: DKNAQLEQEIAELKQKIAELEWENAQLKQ

[33] = target: T33, 4H906-bA; test: two-hybrid library CCNG1
T33 chain: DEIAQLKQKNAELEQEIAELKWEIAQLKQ

[34] = target: T34, 4H3974-bA; test: two-hybrid library CCNG1
T34 chain: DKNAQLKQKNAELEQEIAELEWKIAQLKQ

[35] = target: T35, 4H850-bA; test: two-hybrid library CCNG1
T35 chain: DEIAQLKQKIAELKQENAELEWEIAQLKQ

[36] = target: T36, 4H619-bA; test: two-hybrid library CCNG1
T36 chain: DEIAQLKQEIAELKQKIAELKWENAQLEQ

[37] = target: T37, 4H3631-bA; test: two-hybrid library CCNG1
T37 chain: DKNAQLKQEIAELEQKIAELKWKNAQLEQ

[38] = target: T38, 4H3817-bA; test: two-hybrid library CCNG1
T38 chain: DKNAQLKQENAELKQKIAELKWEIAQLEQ

[39] = target: T39, 4H3638-bA; test: two-hybrid library CCNG1
T39 chain: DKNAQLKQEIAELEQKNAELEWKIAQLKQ

[40] = target: T40, 4H570-bA; test: two-hybrid library CCNG1
T40 chain: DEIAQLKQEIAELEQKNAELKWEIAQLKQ

[41] = target: T41, 4H3414-bA; test: two-hybrid library CCNG1
T41 chain: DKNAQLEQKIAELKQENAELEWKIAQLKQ

[42] = target: T42, 4H3606-AA; test: two-hybrid library CCmax; conditions: mean of both orientations
T42 chain: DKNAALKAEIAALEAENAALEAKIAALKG

[43] = target: T43, 4H340-AA; test: two-hybrid library CCmax; conditions: mean of both orientations
T43 chain: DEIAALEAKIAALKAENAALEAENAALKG

[44] = target: T44, 4H2620-AA; test: two-hybrid library CCmax; conditions: mean of both orientations
T44 chain: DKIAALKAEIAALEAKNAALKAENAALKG

[45] = target: T45, 4H1629-AA; test: two-hybrid library CCmax
T45 chain: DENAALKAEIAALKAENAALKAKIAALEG

[46] = target: T46, 4H3697-AA; test: two-hybrid library CCmax; conditions: mean of both orientations
T46 chain: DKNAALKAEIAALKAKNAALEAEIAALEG

[47] = target: T47, 4H2198-AA; test: two-hybrid library CCmax; conditions: mean of both orientations
T47 chain: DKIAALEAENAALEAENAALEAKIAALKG

[48] = target: T48, 4H3056-AA; test: two-hybrid library CCmax; conditions: mean of both orientations
T48 chain: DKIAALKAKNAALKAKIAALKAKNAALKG

[49] = target: T49, 4H3133-AA; test: two-hybrid library CCmax; conditions: mean of both orientations
T49 chain: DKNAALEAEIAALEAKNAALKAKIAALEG

[50] = target: T50, 4H32-AA; test: two-hybrid library CCmax; conditions: mean of both orientations
T50 chain: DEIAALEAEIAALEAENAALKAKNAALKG

[51] = target: T51, 4H1874-AA; test: two-hybrid library CCmax; conditions: mean of both orientations
T51 chain: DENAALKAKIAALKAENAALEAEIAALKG

[52] = target: T52, 4H3413-AA; test: two-hybrid library CCmax; conditions: mean of both orientations
T52 chain: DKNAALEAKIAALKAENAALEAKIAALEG

[53] = target: T53, 4H2907-AA; test: two-hybrid library CCmax; conditions: mean of both orientations
T53 chain: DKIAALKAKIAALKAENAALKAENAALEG

[54] = target: T54, 4H3631-AA; test: two-hybrid library CCmax; conditions: mean of both orientations
T54 chain: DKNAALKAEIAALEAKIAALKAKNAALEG

[55] = target: T55, 4H3865-AA; test: two-hybrid library CCmax; conditions: mean of both orientations
T55 chain: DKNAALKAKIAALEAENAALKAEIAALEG

[56] = target: T56, 4H3588-AA; test: two-hybrid library CCmax; conditions: mean of both orientations
T56 chain: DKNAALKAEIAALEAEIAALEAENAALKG

[57] = target: T57, 4H3378-AA; test: two-hybrid library CCmax; conditions: mean of both orientations
T57 chain: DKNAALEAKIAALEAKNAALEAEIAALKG

[58] = target: T58, 4H2611-AA; test: two-hybrid library CCmax; conditions: mean of both orientations
T58 chain: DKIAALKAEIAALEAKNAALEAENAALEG

[59] = target: T59, 4H1845-AA; test: two-hybrid library CCmax; conditions: mean of both orientations
T59 chain: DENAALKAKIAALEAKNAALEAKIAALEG

[60] = target: T60, 4H2553-AA; test: two-hybrid library CCmax; conditions: mean of both orientations
T60 chain: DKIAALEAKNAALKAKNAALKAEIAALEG

[61] = target: T61, 4H3162-AA; test: two-hybrid library CCmax; conditions: mean of both orientations
T61 chain: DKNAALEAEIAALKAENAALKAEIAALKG

[62] = target: T62, 4H384-AA; test: two-hybrid library CCmax; conditions: mean of both orientations
T62 chain: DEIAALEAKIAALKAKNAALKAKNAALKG

[63] = target: T63, 4H3718-AA; test: two-hybrid library CCmax; conditions: mean of both orientations
T63 chain: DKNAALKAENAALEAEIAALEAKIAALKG

[64] = target: T64, 4H2648-AA; test: two-hybrid library CCmax; conditions: mean of both orientations
T64 chain: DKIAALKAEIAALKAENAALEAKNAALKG

[65] = target: T65, 4H982-AA; test: two-hybrid library CCmax; conditions: mean of both orientations
T65 chain: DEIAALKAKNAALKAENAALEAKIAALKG

[66] = target: T66, 4H697-AA; test: two-hybrid library CCmax; conditions: mean of both orientations
T66 chain: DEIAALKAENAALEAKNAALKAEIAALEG

B1: 4H4001-AA (peptide)
chain: DKNAALKAKNAALEAKIAALEAEIAALEG
interaction score [1]: -0.824
interaction score [2]: -1.85
interaction score [3]: -1.32
interaction score [4]: -2.04
interaction score [5]: -1.75
interaction score [6]: -1.79
interaction score [7]: -1.57
interaction score [8]: -1.79
interaction score [9]: -1.19

B2: 4H2702-bH (peptide)
chain: DKIQELKKENEELEREIWELKKKIQELKR
interaction score [10]: 0.468
interaction score [11]: 1.57
interaction score [12]: 0.8
interaction score [13]: -0.247
interaction score [14]: -0.0377
interaction score [15]: -0.871
interaction score [16]: 1.37
interaction score [17]: 1.55
interaction score [18]: -0.588
interaction score [19]: 0.405
interaction score [20]: 0.549
interaction score [21]: -2.01
interaction score [22]: -0.77
interaction score [23]: 0.525
interaction score [24]: -0.558
interaction score [25]: 0.896
interaction score [26]: 0.92

B3: P6bHq (peptide)
chain: DKNQELKKEIEELERENWELEKKIQELKQ
interaction score [27]: 0.113
interaction score [28]: -0.205
interaction score [29]: 1
interaction score [30]: 1.03

B4: 4H3172-bA (peptide)
chain: DKNAQLEQEIAELKQKIAELEWENAQLKQ
interaction score [31]: -0.867
interaction score [32]: 1.36
interaction score [33]: -0.0855
interaction score [34]: 0.174
interaction score [35]: -0.244
interaction score [36]: -0.797
interaction score [37]: 0.247
interaction score [38]: -0.291
interaction score [39]: -0.395
interaction score [40]: -1.11
interaction score [41]: -0.273

B5: 4H1629-AA (peptide)
chain: DENAALKAEIAALKAENAALKAKIAALEG
interaction score [42]: 0.462
interaction score [43]: -1.67
interaction score [44]: -1.66
interaction score [45]: 2.04
interaction score [46]: -0.847
interaction score [47]: -1.33
interaction score [48]: -1.6
interaction score [49]: -1
interaction score [50]: -1.13
interaction score [51]: -0.00053
interaction score [52]: -0.212
interaction score [53]: -1.89
interaction score [54]: -1.7
interaction score [55]: -0.375
interaction score [56]: -1.46
interaction score [57]: -1.39
interaction score [58]: -1.42
interaction score [59]: -1.22
interaction score [60]: -1.61
interaction score [61]: -0.752
interaction score [62]: -1.82
interaction score [63]: -1.62
interaction score [64]: -1.18
interaction score [65]: -1.55
interaction score [66]: -1.58
